Measurements: patent publication US20130224190A1 (INTERNATIONAL DRUG DEVELOPMENT BIOTECH, published 2013)
Positions count from the first letter of the chain named. Names may count otherwise. Blank lines part the entries; values can stand above or below the binder they belong to.

Biological target: T1, human C1q (human, UniProt P02745 23-245; P02746 28-253; P02747 29-245)
T1 construct: The assay used recombinant human C1q (Abd Serotec, 0.2 ug/ml) or C1q from natural human complement (Sigma); It was detected with sheep anti-human C1q-peroxidase on plates coated with the MAb; also called recombinant human C1q; human complement
T1 sequence (P02745 23-245 limits assumed, chain 1 of 3): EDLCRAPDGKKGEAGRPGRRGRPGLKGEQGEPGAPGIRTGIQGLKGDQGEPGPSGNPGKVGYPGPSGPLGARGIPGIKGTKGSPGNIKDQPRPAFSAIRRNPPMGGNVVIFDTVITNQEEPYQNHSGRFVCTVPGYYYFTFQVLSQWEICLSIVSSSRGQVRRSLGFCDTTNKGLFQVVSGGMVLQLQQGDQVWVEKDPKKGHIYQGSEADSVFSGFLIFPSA
T1 sequence (P02746 28-253 limits assumed, chain 2 of 3): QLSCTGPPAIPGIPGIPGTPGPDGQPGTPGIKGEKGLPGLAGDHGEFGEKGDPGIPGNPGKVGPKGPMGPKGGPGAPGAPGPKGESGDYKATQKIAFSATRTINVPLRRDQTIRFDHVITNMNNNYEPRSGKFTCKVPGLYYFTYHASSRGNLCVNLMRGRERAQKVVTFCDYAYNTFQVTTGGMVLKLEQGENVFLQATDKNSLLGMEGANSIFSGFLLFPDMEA
T1 sequence (P02747 29-245 limits assumed, chain 3 of 3): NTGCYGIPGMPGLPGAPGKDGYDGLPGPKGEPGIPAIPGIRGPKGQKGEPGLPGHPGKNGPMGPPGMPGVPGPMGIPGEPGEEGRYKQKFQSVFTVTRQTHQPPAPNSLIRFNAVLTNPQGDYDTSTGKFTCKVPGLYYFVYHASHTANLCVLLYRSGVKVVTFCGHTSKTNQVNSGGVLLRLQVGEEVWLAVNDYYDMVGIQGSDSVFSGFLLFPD
Assay: ELISA, C1q on coated MAb
Protocol: The binding of human recombinant C1q was assessed by an ELISA binding assay. […] Data represent mean+/−SD of two independent experiments.
Complement binding assay: The binding of human C1q to MAbs was assessed by an ELISA binding assay. The 96-well plates (Nunc) were coated overnight at 4° C. with varying MAb concentrations. After washing, the plates were blocked with PBS-5% BSA for 1 h, and incubated for 1 h with 0.2 μg/ml of recombinant human C1q (Abd Serotec) or 2.5 μl of natural human complement (Sigma). Then, 100 μl of a 1/500 dilution of sheep anti-human C1q peroxidase-conjugated Ab (Abd Serotec) added and incubated for 1 h. The plates were developed with 100 μl per well of TMB substrate (Uptima Interchim). After H₂S0₄ addition, the OD was measured at 450 nm/630 nm using a MRX II microplate reader.

- binding result: binds
B1: chR005-1 Fc24 (antibody)
heavy: QVQLQQSGAELVRPGSSVKISCKASGYAFSSYWVNWMKQRPGQGLEWIGQIYPGDGDTNYNGKFKGRATVTADKSSSTSYMQFSSLTSEDSAVYFCARSITTVVGCAMDYWGQGTSVTVSSASTKGPSVFPLAPSSKSTSGGTAALGCLVKDYFPEPVTVSWNSGALTSGVHTFPAVLQSSGLYSLSSVVTVPSSSLGTQTYICNVNHKPSNTKVDKKVEPKSCDKTHTCPPCPAPELLGGPSVFLLPPKPKDTLMISRTPEVTCVVVDVSHEDPEVKFNWYVDGVEVHNAKTKPPEEQYNSTLRVVSLLTVLHQDWLNGKEYKCKVSNAALPAPIAKTISKAKGQPREPQVYTLPPSRDELTKNQVSLTCLVKGFYPSDIAVEWESNGQPENNYKTTPLVLDSDGSFFLYSKLTVDKSRWQQGNVFSCSVMHEALHNHYTQKSLSLSPGK
light: DIQMTQSSAYLSVSLGGRVTITCKASDHINNWLAWYQHKPGNAPRLLISGATTLETGVPSRFSGSGSGKDYTLSITSLQTEDVATYYCQQSWNTPWTFGGGTK
notes: Chimeric human IgG1 with variant Fc24 (F243L/R292P/Y300L/V305L/K326A/E333A/P396L against Fc0); also called chR005-1 Fc24 MAb; Fc24 optimized chR005-1 MAb; not shown: human light chain constant region

- binding result: binds
B2: chR005-1 Fc34 (antibody)
heavy: B1 heavy with A337E
light: B1 light
notes: Chimeric human IgG1 with variant Fc34 (F243L/R292P/Y300L/V305L/K326A/P396L against Fc0); also called chR005-1 Fc34 MAb; Fc34 LPLLAL; not shown: human light chain constant region
